In publication PMC6908968 (Cell, 2019):

How the values were obtained:
[1] = molecular target: T1, thermolysin-cleaved EBOV GP on Jurkat-GP cells (cleaved GP) (Zaire ebolavirus, Makona (GP1 core …, strain))
T1 chain 1: not shown
T1 chain 2: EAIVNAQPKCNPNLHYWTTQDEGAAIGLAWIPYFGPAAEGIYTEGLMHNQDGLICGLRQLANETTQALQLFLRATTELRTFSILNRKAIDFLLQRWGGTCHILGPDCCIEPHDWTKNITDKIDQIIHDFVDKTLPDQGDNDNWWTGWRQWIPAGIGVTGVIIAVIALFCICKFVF

[2] = molecular target: EBOV GP ectodomain residues 1-636 (GPec) (Zaire ebolavirus, strain  …, UniProt Q05320)

B1: 5.6.c3013 (antibody, V domains shown)
VH: QVQLVQSGAEVKKPGASVKVSCKASGYTFTKYGISWMRQAPGQGLEWMGWISAYNGDTNYAQKLHGRLTMTTDTSTSTVYMELRSLRSDDTAIYYCARDLGELSSLKFYGMDVWGQGTTVTVSS
VL: DIQLTQSPSFLSASVGDRVTITCRASQGISSFLAWYQQKPGKAPKILVYGASTLQSGVPSRFSGSGSGTEFTLTISSLQPEDFATYYCQQVNTFPFTFGPGTQVDFK
B1: binds [1]; binds [2].

B2: 5.6.c2972 (antibody, V domains shown)
VH: QVQLQESGPGLVKPSQTLSLTCAVSGGSIRSDDNYWSWIRQPPGKGLEWIGYIYHRGSTYYNPSLKNRVKISVDTSKNQFSLKLSSVTAADTAVYYCARDRIQVVPDGIVHYYYGMDVWGQGTTVTVSS
VL: QSVLTQPPSVSAAPGQKVTISCSGSSSNIGNNYVSWYQQLPGTAPKLLIYDNNKRPSGIPDRFSGSKSGTSATLGITGLQTGDEADYYCGTWDNNLSAWVFGGGTKLTVL
B2: binds [1]; binds [2].

B3: 5.6.c2995 (antibody, V domains shown)
VH: QVQLVESGGGVVQPGRSLRLSCAASGFSFSTYGMYWVRQAPGKGLEWVGVIWYDGSEKYHADFVKGRFTMSRDNSKNTLYLQMNSLRVEDTAVYYCARDLRPSTNSWYGYYYNAMDVWGQGTTVTVSS
VL: QSVLTQPPSVSAAPGQRVTISCSGNSSNIGNNFVSWYQQLPGTAPKLLIYDNNSRPSGIPDRFSGSKSGTSATLGISGLQTGDEADYYCGSWDGSLSLWVFGGGTKLTVL
B3: binds [1]; binds [2].

B4: 5.6.c2957 (antibody, V domains shown)
VH: QVRMVQSGAEVKKPGSSVKVSCKTSGGTFSTYSISWVRQAPGHGLEWMGRLIPMLGTPNYAQKFQGRLTITADRSTSTAYMELSSLSSEDTAVYYCARDLGTVLTPGDSWGQGTLVTVSS
VL: DIQMTQSPSSLSASVGDRVTITCRASQGISNYLAWFQQKPGEAPKSLIYAASSLQSGVPSKFSGSGSGTDFTLTISNLQPEDFATYYCQQYNSYPLTFGGGTKVEIK
B4: binds [1]; binds [2].

B5: 5.6.c3083 (antibody, V domains shown)
VH: QVQLVQSGVEVKKPGASVKLSCKASGYTFTTYGISWVRQAPGQGLEWMGWISAYDDNANYGQQFQGRVTMTTDTSTSTAYMELRSLRSDDTAVYFCARCGGEFIWGWLDPWGQGTLVTVSS
VL: QSALTQPASVSGSPGQSITISCTGTSSDIGGYNYVSWYQQHPGLAPKLMIYDVSYRPSGVSNRFSGSKSGNTASLTISGLQAEDEADYYCSSYTSSGTLVFGGGTKLTVL
B5: binds [1]; binds [2].

B6: 5.6.c2931 (antibody, V domains shown)
VH: QLQLQESGPGLVKPSQTLSLTCTVAGGSISRSSYYWGWIRQSPGKGLEWIGSIHYSGSTHYNSSLRSRVTISVDTSKNQFSLNLTSVTAADTAVYYCVRQSSVPYFDWSSPGQIDPWGQGTLVTVSS
VL: QLVLTQSPSASASLGASVKFTCTLSSGHRSYAIAWHQQQPEKGPRYLMKINSDGSHNKGDGIPDRFSGSSSGDERYLTISSLQSEDEADYYCQTWGTGIQVFGGGTKLTVL
B6: binds [1]; binds [2].

B7: 5.6.c3067 (antibody, V domains shown)
VH: EVQLVESGGGLVQPGGSLRLSCAASGFTFSNYWMTWVRQAPGKGLEWVGNIKEDGSEKYYVDSVKGRFTISRDNAKNSLYLQLNNLRAEDTAVYYCAREPAGFVFEGGFDYWGQGTLVTVSS
VL: DIQMTQSPSSVSASVGDRVTILCRASQYITTWLAWYQQKPGRAPKLLISAASTLQSGVPSRFSGSGSGTDFTLTISSLQPEDFATYYCQQAHSLPWTFGQGTKVEIK
B7: binds [1]; binds [2].

B8: 5.6.c3053 (antibody, V domains shown)
VH: QVQLVESGGGLVQPGRSLRLSCAASGFTFTNYGMQWVRQGPGKGLEWVALIWYDGYSKYYVDSVKGRFTISRDNSKNTLYLEMNSLRAEDTAVYYCARGNGYSSGWLDNWGQGTLVTVSS
VL: DIQMTQSPSTLSASVGDRVTITCRASQSIDNWLAWYQQKPGKAPKVLIYKASSLESGVPSRFSGSASGTEFTLTISSLQPDDFATYYCQHYNSYSGTFGQGTKVEIK
B8: binds [1]; binds [2].

B9: 5.6.c2998 (antibody, V domains shown)
VH: EVQLVESGGGVVQPGGSLRLSCAASGFTFDDYAMHWVRQAPGKGLEWVSIITGDGGSRNYADSVKGRFTISRDNNKNSLYLQMNSLRSEDTALYYCAKEGGPDSSTFYYYGMDVWGQGTTVTVSS
VL: DIQMTQSPSSVSASVGDRVTITCRASQDVSSWLAWYRQKPGRAPELLIYAASSLQSGVPSRFSGSGSGTDFTLTISSLQPEDFASYYCLQANSIPWTFGQGTKVEIK
B9: binds [1]; binds [2].

B10: 5.6.c3014 (antibody, V domains shown)
VH: QVQLVESGGGVVQPGRSLRLSCAASGFSFNSYGMHWVRQAPGKGLEWVAIIWYDGSDKYYADSVKGRFTISRDNSKNTLSLQMNSLRVEDSAVYYCARDPGHPSDLYYYYGMDVWGQGTTVTVSS
VL: DIQMTQSPSSVSASVGDRVTITCRASQDISYWLAWYQQKPGKAPKLLIYSASSLQSGVPSRFSGSGSGTDFTLTISSLQPEDFATYYCQQTHTFPITFGQGTRLEIK
B10: binds [1]; binds [2].

B11: 5.6.c3027 (antibody, V domains shown)
VH: QVQLVESGGGVVQPGRSLRLSCAASGFSFNNYGMHWVRQAPGKGLEWVAHIYFDGNYKFYIDSVKGRFTISRDNAKYTLYLQMNSLRVEDTAVYYCARDVRDGDDIFSGYHYGMDVWGQGTTVTVSS
VL: DIQMTQSPSSVSASVGDRVSITCRASQGFTNWLAWYQQKPGKAPKLVIYAASSLQSGVPSRFSGSGSGTNFTLTISSLQPEDFATYYCQQANSFPLTFGGGTKVDVK
B11: binds [1]; binds [2].

B12: 5.6.c3057 (antibody, V domains shown)
VH: QVQLVESGGGVVQSGRSLRLSCAASGFTLSSYGMHWVRQAPGKGLEWVATVSFDGNNEYYADSVKGRFTISRDKSKNTLYLQMNSLRPEDTAMYYCAKEPLPARGDFWSGHYSPPSYYYYGMDVWGQGTTVTVSS
VL: QTVVTQEPSFSVSPGGTVTLTCGLRSGSVSTNYYPSWYQQTPGQPPRTLIYNTNTRSFGVPDRFSGSILGNRAALTITGAQADDESDYYCLLYMDSGIWVFGGGTKLTVL
B12: binds [1]; binds [2].

B13: 5.6.c2954 (antibody, V domains shown)
VH: QAQLQESGPGLVKPSQTLSLTCTVSGGFSSSGGFFWSWIRQHPGKDLEWIGYIYSSGSPYYKPSLKSRVTISIDTSKNQFSLRLSSVTAADTAIYYCARGRGEMLTGYFDYWGQGKLVTVSS
VL: SYVLTQPPSVSVAPGKTASITCGGNNIGSKSVHWYQQRPGQAPVLVIYYDTDRPSGIPERFSGSNSGNTATLTISRVEAGDEADYYCQVWDSSSDPLLFGGGTKLTVL
B13: binds [1]; binds [2].

B14: 5.6.c3023 (antibody, V domains shown)
VH: QVQLVESGGGVVQPGRSLRLSCAASGFTFRTYGLHWVRQAPGKGLEWVAFISNDGSSKYNVDSVKGRFTISRDNPKNTLYLQMNSLRTEDTAVYYCAKDTISVAIYGHFDTWGQGTLVTVSS
VL: DVVMTQSPLSLPVTLGQPASISCRSSQSLVKSDGNTYLNWFQQRPGQSPRRLIYKVSTRDTGVPDRFSGSGSGTDFTLKISRVEAEDVAVYYCMQATHWPITFGGGTTVEIK
B14: binds [1]; binds [2].

B15: 5.6.c3021 (antibody, V domains shown)
VH: QLHLQESGPGLVKPSETLSLTCTVSGGSINHDYYWGWIRQPPGKGLEWIGTIYYSGNSYYNPSLKSRVTISVDTSKNQFSLKLSSVTAADTAVYYCARSEEDSVFGVLKGLAFDIWGQGTMVTVSS
VL: QSVLTQPPSVSGAPGQRVTISCTGSSSNIGAGYDVHWYQQPPGRAPKLLIYGNSNRASGVPDRFSGSKSGTSASLAITGLQAEDEADYYCQSYDSSLSGSVFGGGTKLTVL
B15: binds [1]; binds [2].

B16: 5.6.c2913 (antibody, V domains shown)
VH: DVQLVESGGGLVQPGGSLRLSCVASGLTFSRDWMTWVRQAPGKGLEWVANIKQDGSEKYYLDSVKGRFTISRDNSNNALYLQMSSLRGEDTAVYYCARLHGGGFSDSDLFYYDFAMDVWGQGTTVTVSA
VL: EIVMTQSPATLSVSPGERATLSCRASQSVINNLAWYQQKPGQAPRLLIYGASTRATGIPARFSGSGSGTEFTLTISNLQSEDFAVYYCQQYNNWPPLTFGGGTQVEIK
B16: binds [1]; binds [2].

B17: 5.6.c3108 (antibody, V domains shown)
VH: QVQLVESGGGVVQPGRSLRLSCAASGFTFSNSDMHWVRQAPGKGLEWVALIYFDGSSQYYVDSVKGRFTISRDNSKNTLYLQMNSLRVEDTAVYYCAREAAIVGAIFYDGMDVWGQGTTVTVSS
VL: EIVMTQSPATLSVSPGEGATLSCRASQNVGFNVAWYQQRPGQAPRLLIYGASTRATGVPARFSGSGSGTEFTLTISSLQSEDFAVYYCQQCNNWPPLTFGGGTKVEIK
B17: binds [1]; binds [2].

B18: 5.6.c3054 (antibody, V domains shown)
VH: QVTLRESGPALVKPTQTLTLTCTFSGFSLSTSGMCVSWIRQPPGKALEWLALIDWNDGKYYTTSLKTRLTISKDTSKNQVVLTMTNMDPVDTATYYCARIFTSSDWFYDAFDLWGQGAMVTVSS
VL: QIVMTQSPATLSVSPGERATLSCRASQSVNNNLAWYQQKPGQAPRLLISGASTRATGIPARFSGSGFGTEFTLTISSLQSEDFAVYYCQQYNTWPPLTFGPGTRVDIK
B18: binds [1]; binds [2].

B19: 5.6.c2961 (antibody, V domains shown)
VH: QVQLQESGPGLVKPSQTLSLTCTVSGDSISSGDYYWNWIRHHPGKGLEWLGYIYYSGSSDYNPSLKSRVTISVDTSKNHFSLKLSSVTAADTAIYYCARGSVSVLFGELDVWGQGTTVTVSS
VL: EIVLTQSPGTLSLSPGERATLSCRASQSVSNNFLAWYQQIRGQAPRLLIYGVSHRATGIPDRFSGSGSGTDFTLTISGLEPEDFALYYCQQYGRSPYTFGQGTRLEIK
B19: binds [1]; binds [2].
